Measurements: PMC5428262

Molecular target: GFP-tagged tomosyn1 (GFP-Tomosyn1), wild type (rat) (UniProt Q9WU70)
Assay: co-IP; GFP antiserum and protein G agarose, overnight, 300 ug extract of INS 832/13 cells expressing GFP-tomosyn1 constructs; lysis buffer with 1% Triton X-100, 150 mM NaCl, 25 mM N-ethylmaleimide; blot; cells in regular media or treated with 10 mM glucose or 30 mM KCl (15 min) in KRB

Chain of UniProt Q9WU70 (Q9WU70 whole entry): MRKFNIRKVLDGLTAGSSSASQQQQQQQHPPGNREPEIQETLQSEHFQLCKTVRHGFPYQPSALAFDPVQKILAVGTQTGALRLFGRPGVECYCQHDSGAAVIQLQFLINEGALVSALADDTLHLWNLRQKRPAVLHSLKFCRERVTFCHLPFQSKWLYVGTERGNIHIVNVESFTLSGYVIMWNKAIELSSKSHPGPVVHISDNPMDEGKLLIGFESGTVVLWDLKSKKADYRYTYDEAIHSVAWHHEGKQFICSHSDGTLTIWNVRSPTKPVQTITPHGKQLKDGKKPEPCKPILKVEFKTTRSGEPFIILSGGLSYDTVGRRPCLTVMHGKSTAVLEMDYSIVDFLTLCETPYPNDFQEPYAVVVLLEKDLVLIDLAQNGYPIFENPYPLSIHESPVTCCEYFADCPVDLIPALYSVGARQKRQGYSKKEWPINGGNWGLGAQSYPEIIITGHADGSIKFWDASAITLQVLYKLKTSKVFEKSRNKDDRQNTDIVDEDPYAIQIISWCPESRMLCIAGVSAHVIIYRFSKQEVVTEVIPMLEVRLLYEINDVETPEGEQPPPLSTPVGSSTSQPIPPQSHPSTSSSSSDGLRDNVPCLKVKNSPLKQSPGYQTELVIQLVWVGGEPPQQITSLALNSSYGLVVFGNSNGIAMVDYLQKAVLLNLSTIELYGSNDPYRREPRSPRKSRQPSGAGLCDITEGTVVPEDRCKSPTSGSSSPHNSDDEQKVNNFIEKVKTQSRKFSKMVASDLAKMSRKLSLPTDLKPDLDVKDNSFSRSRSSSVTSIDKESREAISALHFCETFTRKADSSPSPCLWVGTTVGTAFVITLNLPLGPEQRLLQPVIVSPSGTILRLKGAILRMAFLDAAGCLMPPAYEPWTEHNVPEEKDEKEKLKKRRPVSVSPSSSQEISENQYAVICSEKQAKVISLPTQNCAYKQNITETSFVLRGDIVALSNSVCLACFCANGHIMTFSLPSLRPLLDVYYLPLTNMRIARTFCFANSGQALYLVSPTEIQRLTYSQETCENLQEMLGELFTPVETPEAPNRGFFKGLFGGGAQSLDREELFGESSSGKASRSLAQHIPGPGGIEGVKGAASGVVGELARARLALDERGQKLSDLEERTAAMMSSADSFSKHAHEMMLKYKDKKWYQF

percent decrease of the interaction after KCl stimulation: 65.3% | percent decrease of the interaction after glucose stimulation: 44.6%
B1: secretagogin (INS 832/13 cells) (natural protein)
chain: MDNAHRQTQAHLDAACFWQIWQRFDKDEKGYIKETELDAFFDDLLAKFGIEDTLMEENVQKMKEQLMVGHDISKEGRILMKELASMFLSEDENFLLFFRLETPLDNSVEFMQIWRKYDADSSGFISAAELSNFLRDLFLHHKKVISEAELEEYTSTMEKIFDRNKDGRLDLNDLARILALQENFLLQFKMDASSTEERKRDFEKIFAHYDVSKTGALEGPEVDGFVKDMMELVQPSISGVDLDKFREILLRHCDVNKDGKIQKSELALCLGLKINP
